Measured values as given in patent US20150344570A1 (published 2015).

T1: FcγRIIa H (FcγRIIa, allotype with His at position 131), extracellular domain with C-terminal His tag (human, UniProt P12318 34-217)
T1 construct: extracellular domain; also called FcgRIIa H; 2aH; not shown: His tag at the C terminus
T1 sequence (looked up): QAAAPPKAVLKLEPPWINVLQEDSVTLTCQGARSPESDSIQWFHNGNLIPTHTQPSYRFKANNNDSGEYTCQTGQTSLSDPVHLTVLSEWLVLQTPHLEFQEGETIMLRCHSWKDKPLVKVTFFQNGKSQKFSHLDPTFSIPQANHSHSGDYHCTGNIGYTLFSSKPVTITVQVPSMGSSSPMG

T2: FcγRIIb, extracellular domain with C-terminal His tag (human, UniProt P31994 43-217)
T2 construct: extracellular domain; also called FcgRIIb; 2b; not shown: His tag at the C terminus
T2 sequence (looked up): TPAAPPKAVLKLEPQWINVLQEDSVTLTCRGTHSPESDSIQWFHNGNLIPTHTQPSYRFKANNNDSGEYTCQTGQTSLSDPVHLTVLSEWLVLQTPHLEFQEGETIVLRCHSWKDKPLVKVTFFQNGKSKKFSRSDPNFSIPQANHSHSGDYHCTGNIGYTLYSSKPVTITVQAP

B1: GpH7-A5/GpH7-B3 variant N325_01G/GpL16-k0 (antibody, human IgG1, kappa)
heavy 1: not shown
heavy 2: not shown
light: DIVMTQSPLSLPVTPGEPASISCQASESLVHSNRNTYLHWYLQKPGQSPQLLIYKVSNRFSGVPDRFSGSGSGTDFTLKISRVEAEDVGVYYCSQNTHVPPTFGQGTKVEIERTVAAPSVFIFPPSDEQLKSGTASVVCLLNNFYPREAKVQWKVDNALQSGNSQESVTEQDSKDSTYSLSSTLTLSKADYEKHKVYACEVTHQGLSSPVTKSFNRGEC
notes: Heterodimerized anti-glypican-3 IgG1; mutation in one H chain only; also called He Ab
B2: GpH7-A5/GpH7-B3 variant N325_04F/GpL16-k0 (antibody, human IgG1, kappa)
heavy 1: not shown
heavy 2: not shown
light: B1 light
notes: as for B1
B3: GpH7-A5/GpH7-B3 variant K326_10E/GpL16-k0 (antibody, human IgG1, kappa)
heavy 1: not shown
heavy 2: not shown
light: B1 light
notes: as for B1
B4: GpH7-A5/GpH7-B3 variant K326_09D/GpL16-k0 (antibody, human IgG1, kappa)
heavy 1: not shown
heavy 2: not shown
light: B1 light
notes: as for B1
B5: GpH7-A5/GpH7-B3 variant N325_09D/GpL16-k0 (antibody, human IgG1, kappa)
heavy 1: not shown
heavy 2: not shown
light: B1 light
notes: as for B1
B6: GpH7-A5/GpH7-B3 variant K326_15Y/GpL16-k0 (antibody, human IgG1, kappa)
heavy 1: not shown
heavy 2: not shown
light: B1 light
notes: as for B1
B7: GpH7-A5/GpH7-B3 variant K326_07I/GpL16-k0 (antibody, human IgG1, kappa)
heavy 1: not shown
heavy 2: not shown
light: B1 light
notes: as for B1
B8: GpH7-A5/GpH7-B3 variant K326_20W/GpL16-k0 (antibody, human IgG1, kappa)
heavy 1: not shown
heavy 2: not shown
light: B1 light
notes: as for B1
B9: GpH7-A5/GpH7-B3 variant N325_10E/GpL16-k0 (antibody, human IgG1, kappa)
heavy 1: not shown
heavy 2: not shown
light: B1 light
notes: as for B1
B10: GpH7-A5/GpH7-B3 variant N325_06M/GpL16-k0 (antibody, human IgG1, kappa)
heavy 1: not shown
heavy 2: not shown
light: B1 light
notes: as for B1
B11: GpH7-A5/GpH7-B3 variant K326_06M/GpL16-k0 (antibody, human IgG1, kappa)
heavy 1: not shown
heavy 2: not shown
light: B1 light
notes: as for B1
B12: GpH7-A5/GpH7-B3 variant N325_03V/GpL16-k0 (antibody, human IgG1, kappa)
heavy 1: not shown
heavy 2: not shown
light: B1 light
notes: as for B1
B13: GpH7-A5/GpH7-B3 variant N325_07I/GpL16-k0 (antibody, human IgG1, kappa)
heavy 1: not shown
heavy 2: not shown
light: B1 light
notes: as for B1
B14: GpH7-A5/GpH7-B3 variant K326_08L/GpL16-k0 (antibody, human IgG1, kappa)
heavy 1: not shown
heavy 2: not shown
light: B1 light
notes: as for B1
B15: GpH7-A5/GpH7-B3 variant N325_02A/GpL16-k0 (antibody, human IgG1, kappa)
heavy 1: not shown
heavy 2: not shown
light: B1 light
notes: as for B1
B16: GpH7-A5/GpH7-B3 variant K326_05P/GpL16-k0 (antibody, human IgG1, kappa)
heavy 1: not shown
heavy 2: not shown
light: B1 light
notes: as for B1
B17: GpH7-A5/GpH7-B3 variant K326_14T/GpL16-k0 (antibody, human IgG1, kappa)
heavy 1: not shown
heavy 2: not shown
light: B1 light
notes: as for B1
B18: GpH7-A5/GpH7-B3 variant K326_04F/GpL16-k0 (antibody, human IgG1, kappa)
heavy 1: not shown
heavy 2: not shown
light: B1 light
notes: as for B1
B19: GpH7-A5/GpH7-B3 variant N325_08L/GpL16-k0 (antibody, human IgG1, kappa)
heavy 1: not shown
heavy 2: not shown
light: B1 light
notes: as for B1

What follows are binders tested against T1, FcγRIIa H (FcγRIIa, allotype with His …) (assay: SPR (Biacore), relative binding vs GpH7-A5/GpH7-B3/GpL16-k0).

| He/Con_2aH | Binder |
| --- | --- |
| 56.8 % of HeCon Ab (=100) | B1 |
| 33.4 % of HeCon Ab (=100) | B2 |
| 102 % of HeCon Ab (=100) | B3 |
| 110 % of HeCon Ab (=100) | B4 |
| 53.1 % of HeCon Ab (=100) | B5 |
| 98.3 % of HeCon Ab (=100) | B6 |
| 100 % of HeCon Ab (=100) | B7 |
| 83.3 % of HeCon Ab (=100) | B8 |
| 52.5 % of HeCon Ab (=100) | B9 |
| 48.2 % of HeCon Ab (=100) | B10 |
| 103 % of HeCon Ab (=100) | B11 |
| 45.2 % of HeCon Ab (=100) | B12 |
| 38.1 % of HeCon Ab (=100) | B13 |
| 92.7 % of HeCon Ab (=100) | B14 |
| 47.6 % of HeCon Ab (=100) | B15 |
| 98.8 % of HeCon Ab (=100) | B16 |
| 114 % of HeCon Ab (=100) | B17 |
| 97 % of HeCon Ab (=100) | B18 |
| 52 % of HeCon Ab (=100) | B19 |

What follows are binders tested against T2, FcγRIIb, extracellular domain with … in the same assay as above.

| He/Con_2b | Binder |
| --- | --- |
| 101 % of HeCon Ab (=100) | B1 |
| 143 % of HeCon Ab (=100) | B2 |
| 200 % of HeCon Ab (=100) | B3 |
| 193 % of HeCon Ab (=100) | B4 |
| 124 % of HeCon Ab (=100) | B5 |
| 159 % of HeCon Ab (=100) | B6 |
| 199 % of HeCon Ab (=100) | B7 |
| 148 % of HeCon Ab (=100) | B8 |
| 95.9 % of HeCon Ab (=100) | B9 |
| 217 % of HeCon Ab (=100) | B10 |
| 165 % of HeCon Ab (=100) | B11 |
| 111 % of HeCon Ab (=100) | B12 |
| 171 % of HeCon Ab (=100) | B13 |
| 177 % of HeCon Ab (=100) | B14 |
| 64.4 % of HeCon Ab (=100) | B15 |
| 126 % of HeCon Ab (=100) | B16 |
| 150 % of HeCon Ab (=100) | B17 |
| 155 % of HeCon Ab (=100) | B18 |
| 197 % of HeCon Ab (=100) | B19 |

Each binder was assayed against T1, FcγRIIa H (FcγRIIa, allotype with His …) (assay: SPR (Biacore); He/Con_2aH divided by He/Con_2b (FcγRIIb)).

| He_2aH/2b (IIaH/IIb) [ratio] | Binder |
| --- | --- |
| 0.56 | B1 |
| 0.23 | B2 |
| 0.51 | B3 |
| 0.57 | B4 |
| 0.43 | B5 |
| 0.62 | B6 |
| 0.5 | B7 |
| 0.56 | B8 |
| 0.55 | B9 |
| 0.22 | B10 |
| 0.63 | B11 |
| 0.41 | B12 |
| 0.22 | B13 |
| 0.52 | B14 |
| 0.74 | B15 |
| 0.79 | B16 |
| 0.77 | B17 |
| 0.63 | B18 |
| 0.26 | B19 |
